Where two headings read alike, the source gives them in different places.
Tests used:
Hfq N48A [1] = target: T1, Hfq N48A (Escherichia coli, UniProt P0A6X3 1-102, N48A); assay: fluorescence polarization
Hfq N28A [2] = target: T2, Hfq N28A (Escherichia coli, UniProt P0A6X3 1-102, N28A); assay: fluorescence polarization
Hfq WT [3] = target: T3, Hfq WT (Escherichia coli, UniProt P0A6X3 1-102); assay: fluorescence polarization
Hfq F42S = Hfq F42S (Escherichia coli, UniProt P0A6X3 1-102, F42S); assay: fluorescence polarization
Hfq65 R16A/R17A = Hfq65 R16A/R17A (Escherichia coli, UniProt P0A6X3 1-65, R16A;R17A); assay: NMR
Hfq WT [4] = target: T3, Hfq WT; assay: fluorescence polarization; remark: listed apart in the source
Hfq N28A [5] = target: T2, Hfq N28A; assay: fluorescence polarization; remark: listed apart in the source
Hfq N28A [6] = target: T2, Hfq N28A; assay: fluorescence polarization; remark: listed apart in the source
Hfq N48A [7] = target: T1, Hfq N48A; assay: fluorescence polarization; remark: listed apart in the source

Binder	Kd (Hfq N48A [1]) [nM]	binding result (Hfq F42S)	binding result (Hfq65 R16A/R17A)	Kd (Hfq WT [4]) [nM]	also measured
AACUAAA (ssRNA) [Ads (FAM)]	92.8	binds	–	–	binding result (Hfq N28A [2]): binds; Kd (Hfq WT [3]): 1490 nM
AACUAAA (ssRNA) [Ads]	–	–	binds	–	–
AUAACUA (ssRNA) [Aus]	–	–	binds	–	–
AAUAACUAAA (ssRNA) [OxyS 65-74 10-nt]	–	–	–	13	–
AUAACUA (ssRNA) [Aus (FAM)]	16.8	binds	–	22	binding signal (Hfq N28A [5]): ~6 fold weaker than WT
AAAAAAA (ssRNA) [A7 (FAM)]	–	–	–	–	binding signal (Hfq N28A [6]): ~40 fold weaker than WT; binding signal (Hfq N48A [7]): ~27 fold weaker than WT
